Target: T1, human claudin-4 (residues 1-183), tag-free (human, UniProt O14493 1-183)
T1 construct: also called tag-free claudin-4
T1 sequence (looked up): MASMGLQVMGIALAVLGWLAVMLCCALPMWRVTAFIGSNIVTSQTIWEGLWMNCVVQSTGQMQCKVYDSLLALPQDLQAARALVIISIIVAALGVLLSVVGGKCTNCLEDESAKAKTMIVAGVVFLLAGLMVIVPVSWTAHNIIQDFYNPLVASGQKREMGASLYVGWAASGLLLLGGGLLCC
Assay: SPR
Settings: both partners purified

B1: GST-tagged C-CPE (C-terminal fragment of Clostridium perfringens enterotoxin, residues 185-319) (domain or fragment)
chain: RCVLTVPSTDIEKEILDLAAATERLNLTDALNSNPAGNLYDWRSSNSYPWTQKLNLHLTITATGQKYRILASKIVDFNIYSNNFNNLVKLEQSLGDGVKDHYVDISLDAGQYVLVMKANSSYSGNYPYSILFQKF
  Kd: 3.4 nM
